Patent publication US20240247080A1, “GLP1/GIP/NPY2 RECEPTOR TRIPLE AGONISTS” (Boehringer Ingelheim International GmbH, priority 2022, published 2024)
Like-named read-outs stand apart in the source and are kept apart here. Starred links: 1 amine or outer side, 2 acyl side, 3 side chain; linkers in the order of their positions; H or OH if unused. Non-standard residues stand in square brackets, D forms with d. Groups on a side chain read outwards from the residue. No end group written: not given here. *: point of attachment. C20 diacid = O=C(O)CCCCCCCCCCCCCCCCCCC(=O)*; C18 diacid = O=C(O)CCCCCCCCCCCCCCCCC(=O)*; γGlu = O=C(O)[C@H](CCC(=O)[*:2])N[*:1]; εLys = N[C@@H](CCCCN[*:1])C(=O)[*:2]; AEEA = NCCOCCOCC(=O)O; Aib = CC(C)(N)C(=O)O; Ahx = NCCCCCC(=O)O; OEG = OEG spacer

T1: hGIPR (Homo sapiens, UniProt P48546)
T1 construct: expressed in transfected cells; host or cells: CHO cells carrying a CRE-luciferase reporter gene
T1 sequence (P48546 22-466): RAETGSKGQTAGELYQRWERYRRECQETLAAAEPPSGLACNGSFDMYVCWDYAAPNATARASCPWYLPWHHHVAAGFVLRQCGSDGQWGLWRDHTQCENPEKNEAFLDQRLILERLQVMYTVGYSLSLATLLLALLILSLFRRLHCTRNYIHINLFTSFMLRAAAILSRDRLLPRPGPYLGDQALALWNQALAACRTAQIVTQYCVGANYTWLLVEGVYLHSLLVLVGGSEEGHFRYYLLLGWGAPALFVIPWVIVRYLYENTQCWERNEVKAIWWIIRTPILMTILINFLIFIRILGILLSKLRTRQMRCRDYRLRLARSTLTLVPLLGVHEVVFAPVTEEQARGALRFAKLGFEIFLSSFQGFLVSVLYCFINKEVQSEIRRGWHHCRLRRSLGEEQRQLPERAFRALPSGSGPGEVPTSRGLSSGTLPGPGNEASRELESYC

T2: hNPY2R (Homo sapiens, UniProt P49146)
T2 construct: expressed in transfected cells; host or cells: HEK-293 cells carrying a CRE-luciferase reporter gene
T2 sequence (P49146 1-381): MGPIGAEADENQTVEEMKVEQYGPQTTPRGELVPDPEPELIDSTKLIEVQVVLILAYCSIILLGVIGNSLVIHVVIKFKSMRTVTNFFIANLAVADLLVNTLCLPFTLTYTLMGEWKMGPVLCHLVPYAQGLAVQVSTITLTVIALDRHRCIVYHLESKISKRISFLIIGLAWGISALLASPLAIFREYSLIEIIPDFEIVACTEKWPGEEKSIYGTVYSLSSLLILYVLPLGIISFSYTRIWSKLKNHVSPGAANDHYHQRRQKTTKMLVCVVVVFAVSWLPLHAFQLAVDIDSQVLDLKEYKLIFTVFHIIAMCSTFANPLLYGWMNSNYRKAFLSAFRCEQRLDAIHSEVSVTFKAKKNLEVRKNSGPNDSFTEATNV

T3: human neuropeptide Y2 receptor (human, UniProt P49146 1-381)
T3 sequence (looked up): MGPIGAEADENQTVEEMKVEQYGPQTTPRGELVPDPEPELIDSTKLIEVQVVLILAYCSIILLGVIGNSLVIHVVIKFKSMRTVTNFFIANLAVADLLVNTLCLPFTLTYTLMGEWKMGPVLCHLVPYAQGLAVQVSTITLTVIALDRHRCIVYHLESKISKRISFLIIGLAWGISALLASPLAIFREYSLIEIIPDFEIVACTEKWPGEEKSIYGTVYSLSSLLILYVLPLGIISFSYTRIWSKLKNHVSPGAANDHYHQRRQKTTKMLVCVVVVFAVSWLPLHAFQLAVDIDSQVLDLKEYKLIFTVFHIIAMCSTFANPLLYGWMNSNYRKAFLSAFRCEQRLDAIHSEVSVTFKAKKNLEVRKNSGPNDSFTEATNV

T4: human GIP receptor (human, UniProt P48546 22-466)
T4 sequence (looked up): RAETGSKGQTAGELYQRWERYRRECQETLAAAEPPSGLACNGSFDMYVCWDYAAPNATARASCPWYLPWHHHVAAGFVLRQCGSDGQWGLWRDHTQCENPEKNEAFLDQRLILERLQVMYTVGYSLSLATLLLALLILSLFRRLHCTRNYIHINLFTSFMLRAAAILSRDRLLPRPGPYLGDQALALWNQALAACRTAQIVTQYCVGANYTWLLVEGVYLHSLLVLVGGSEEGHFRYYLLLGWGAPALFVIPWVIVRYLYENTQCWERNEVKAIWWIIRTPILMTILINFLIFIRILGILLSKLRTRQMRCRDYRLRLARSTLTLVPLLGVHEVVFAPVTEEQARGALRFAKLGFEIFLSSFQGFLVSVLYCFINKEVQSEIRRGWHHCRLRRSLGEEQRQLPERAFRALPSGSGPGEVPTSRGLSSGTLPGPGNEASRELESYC


What was measured:
[1] = biological target: T5, hGLP1R (Homo sapiens, UniProt P43220); assay: hGLP1R CreLuc reporter gene assay in 0.5% and 100% plasma; assay type: cell-based; details: CreLuc reporter gene assay
T5 construct: expressed in transfected cells; host or cells: HEK-293 cells carrying a CRE-luciferase reporter gene
Method in brief: (§1)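 HEK cells (GLP-1R, NPY2R) or CHO cells (GIPR) carrying a CRE-luciferase reporter, incubated 4 h at 37 °C with peptides in HBSS/20 mM HEPES pH 7.4 plus 0.5% human plasma, or in 100% plasma. Luminescence read; EC50 from 8-point variable-slope sigmoid fits.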

[2] = biological target: T1, hGIPR; assay: hGIPR CreLuc reporter gene assay in 0.5% and 100% plasma; assay type: cell-based; details: CreLuc reporter gene assay
Method in brief: as §1

[3] = biological target: T2, hNPY2R; assay: hNPY2R CreLuc reporter gene assay in 0.5% and 100% plasma; assay type: cell-based; details: CreLuc reporter gene assay
Method in brief: as §1

[4] = Mouse PK after intravenous application; assay type: in vivo; details: plasma, mean residence time, intravenous 30-60 nmol/kg, male NMRI mice
Protocol: Pharmacokinetic parameters of the peptides were determined after intravenous application to NMRI mice. Male NMRI mice were obtained from Janvier Laboratories (France) weighing 30 to 40 g. Mice were housed in standard cages with a 12:12 hour light:dark cycle and standard food and water access ad libitum. Each test peptide was dissolved in 50 mM phosphate buffer (pH 7.4)/3.5% mannitol. Intravenous application of 30-60 nmol/kg was performed via the tail vein. Serial blood samples from conscious mice were collected from the saphenous vein in EDTA-containing vials at different time points up to 56 hours post-dosing. Subsequently, plasma was prepared by centrifugation for 5 min at approximately 5000 rpm and stored at −20° C. until quantification of the peptide plasma levels by liquid chromatography mass spectrometry (LC-MS). Individual plasma concentration—time profiles were analysed by a non-compartmental approach and the resulting pharmacokinetic parameters were calculated.

[5] = biological target: human GLP-1 receptor (human, UniProt P43220 24-463); assay: cell-based or functional assay
[6] = biological target: T3, human neuropeptide Y2 receptor; assay: cell-based or functional assay
[7] = biological target: T4, human GIP receptor; assay: cell-based or functional assay
[8] = 0.5% human plasma, read-out: hGLP1R 0.5% hP
[9] = 0.5% human plasma, read-out: hGIPR 0.5% hP
[10] = 0.5% human plasma, read-out: hNPY2R 0.5% hP

T5 sequence (P43220 24-463): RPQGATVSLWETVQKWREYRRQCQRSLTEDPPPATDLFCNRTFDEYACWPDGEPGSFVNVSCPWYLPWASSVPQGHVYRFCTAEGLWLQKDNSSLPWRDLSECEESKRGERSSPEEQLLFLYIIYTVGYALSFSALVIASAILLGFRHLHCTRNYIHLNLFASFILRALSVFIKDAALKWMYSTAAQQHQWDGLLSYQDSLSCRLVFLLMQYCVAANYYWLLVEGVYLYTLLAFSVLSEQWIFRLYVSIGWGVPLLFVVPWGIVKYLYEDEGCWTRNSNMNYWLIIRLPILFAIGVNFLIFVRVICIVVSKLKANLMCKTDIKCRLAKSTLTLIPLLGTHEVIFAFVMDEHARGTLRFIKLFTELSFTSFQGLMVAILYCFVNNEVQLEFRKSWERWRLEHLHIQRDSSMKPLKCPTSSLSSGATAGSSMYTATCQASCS

Row | Molecule | EC50 [1, 8] [nM] | EC50 [2, 9] [nM] | EC50 [3, 10] [nM] | EC50 ([3]; 100% human plasma, read-out: hNPY2R 100% hP) [nM] | MRT [4] [h] | EC50 ([1]; 100% human plasma, read-out: hGLP1R 100% hP) [nM] | EC50 ([2]; 100% human plasma, read-out: hGIPR 100% hP) [nM] | EC50 hGLP1R 0.5% hP (CreLuc) [5] [nM] | EC50 hGLP1R 100% hP (CreLuc) [5] [nM] | EC50 hNPY2R 0.5% hP (CreLuc) [6] [nM] | EC50 hNPY2R 100% hP (CreLuc) [6] [nM] | EC50 hGIPR 0.5% hP (CreLuc) [7] [nM] | EC50 hGIPR 100% hP (CreLuc) [7] [nM]
1 | Y[Aib]EGTFTSDYSI[Aib]LEKQAQ[Aib]AFVQWLIK([εLys-γGlu-γGlu-γGlu-γGlu-γGlu-γGlu-γGlu-C20 diacid])GGPSEGASLRHYYNWLTRQRY-NH2 [Compound 224, Y-Aib-E-G-T-F-T-S-D-Y-S-I-Aib-L-E-K-Q-A-Q-Aib-A-F-V-Q-W-L-I-K(1,3)-GGPSEGASLRHYYNWLTRQRY-NH2.C20DA-gGlu-gGlu-gGlu-gGlu-gGlu-gGlu-gGlu-eLys(1,2)] | 0.13 | 0.43 | 10.6 | 31.6 | 10.2 |  |  |  |  |  |  |  | 
2 | CC[C@H](C)[C@H](NC(=O)[C@H](CC(C)C)NC(=O)[C@H](Cc1c[nH]c2ccccc12)NC(=O)[C@H](CCC(=O)O)NC(=O)[C@@H](NC(=O)[C@H](Cc1ccccc1)NC(=O)[C@H](C)NC(=O)C(C)(C)NC(=O)[C@H](CCC(N)=O)NC(=O)[C@H](C)NC(=O)[C@H](CCC(N)=O)NC(=O)[C@H](CCCCN)NC(=O)[C@H](CCC(=O)O)NC(=O)[C@H](CC(C)C)NC(=O)C(C)(C)NC(=O)[C@@H](NC(=O)[C@H](CO)NC(=O)[C@H](Cc1ccc(O)cc1)NC(=O)[C@H](CC(=O)O)NC(=O)[C@H](CO)NC(=O)[C@@H](NC(=O)[C@H](Cc1ccccc1)NC(=O)[C@@H](NC(=O)CNC(=O)[C@H](CCC(=O)O)NC(=O)C(C)(C)NC(=O)[C@@H](N)Cc1ccc(O)cc1)[C@@H](C)O)[C@@H](C)O)[C@@H](C)CC)C(C)C)C(=O)N[C@@H](CCCCNC(=O)[C@@H](N)CCCCNC(=O)CC[C@H](NC(=O)CC[C@H](NC(=O)CC[C@H](NC(=O)CC[C@H](NC(=O)CC[C@H](NC(=O)CC[C@H](NC(=O)CCCCCCCCCCCCCCCCCCC(=O)O)C(=O)O)C(=O)O)C(=O)O)C(=O)O)C(=O)O)C(=O)O)C(=O)NCC(=O)NCC(=O)N1CCC[C@H]1C(=O)N[C@@H](CO)C(=O)N[C@@H](CO)C(=O)NCC(=O)N[C@@H](C)C(=O)N[C@@H](CO)C(=O)N[C@@H](CC(C)C)C(=O)N[C@@H](CCCNC(=N)N)C(=O)N[C@@H](Cc1c[nH]cn1)C(=O)N[C@@H](Cc1ccc(O)cc1)C(=O)N[C@@H](Cc1ccc(O)cc1)C(=O)N[C@@H](CC(N)=O)C(=O)N[C@@H](Cc1c[nH]c2ccccc12)C(=O)N[C@@H](CC(C)C)C(=O)N[C@H](C(=O)N[C@@H](CCCNC(=N)N)C(=O)N[C@@H](CCC(N)=O)C(=O)N[C@@H](CCCNC(=N)N)C(=O)N[C@H](Cc1ccc(O)cc1)C(N)=O)[C@@H](C)O [Compound 214, Y-Aib-E-G-T-F-T-S-D-Y-S-I-Aib-L-E-K-Q-A-Q-Aib-A-F-V-E-W-L-I-K(1,3)-GGPSSGASLRHYYNWLTRQR-DTyr-NH2.C20DA-gGlu-gGlu-gGlu-gGlu-gGlu-gGlu-eLys(1,2)] | 0.19 | 0.23 | > 99.9 |  | 10.1 | 2.65 | 1.81 |  |  |  |  |  | 
3 | Y[Aib]EGTFTSDYSI[Aib]LEKQAQ[Aib]AFVEWLIK([OEG-OEG-Glu-Glu-Glu-C18 diacid])GGPSEGASLRHYYNWLTRQRY-NH2 (also: TFA salt) [Compound 298] |  |  |  |  |  |  |  | 0.11 | 5.22 | 12.1 | 66.5 | 0.13 | 1.27
4 | Y[Aib]EGTFTSDYSI[Aib]LEKQAQ[Aib]AFVEWLIK([AEEA-AEEA-γGlu-γGlu-γGlu-C18 diacid])GGPSEGASLRHYYNWLTRQRY-NH2 (also: TFA salt) [Compound 299] |  |  |  |  |  |  |  | 0.08 | 2.97 | 11 | 31.6 | 0.4 | 0.71
5 | Y[Aib]EGTFTSDYSI[Aib]LEKQAQ[Aib]AFVEWLIK([AEEA-γGlu-γGlu-γGlu-C18 diacid])GGPSEGASLRHYYNWLTRQRY-NH2 (also: TFA salt) [Compound 300] |  |  |  |  |  |  |  | 0.11 | 6.33 | 20 | 89.3 | 0.16 | 1.81
6 | YXEGTFTSDYSIXLEKQAQXAFVEWLIKGGPSEGASLRHYYNWLTRQRY (Aib at 2, 13, 20; K28 side chain acylated with C20DA-gGlu-gGlu-gGlu-gGlu-gGlu-AHX; C-terminal amide (NH2)) [Compound 301] |  |  |  |  |  |  |  | 0.23 | 11.3 | 25.4 | 99.3 | 0.58 | 3.27
7 | Y[Aib]EGTFTSDYSI[Aib]LEKQAQ[Aib]AFVEWLIK([Glu-Glu-Glu-Glu-Glu-Glu-C18 diacid])GGPSEGASLRHYYNWLTRQRY-NH2 (also: TFA salt) [Compound 302] |  |  |  |  |  |  |  | 0.15 | 6.05 | 31.9 | 173 | 0.33 | 3.87
8 | Y[Aib]EGTFTSDYSI[Aib]LEKQAQ[Aib]AFVEWLIK([Ahx-γGlu-γGlu-γGlu-γGlu-γGlu-γGlu-C18 diacid])GGPSEGASLRHYYNWLTRQRY-NH2 (also: TFA salt) [Compound 303] |  |  |  |  |  |  |  | 0.2 | 4.42 | 33.3 | 122 | 0.36 | 2.36
9 | YXEGTFTSDYSIXLEKQAQXAFVEWLIKGGPSEGASLRHYYNWLTRQRY (Aib at 2, 13, 20; K28 side chain acylated with C18DA-gGlu-gGlu-gGlu-gGlu-gGlu-AHX; C-terminal amide (NH2)) [Compound 304] |  |  |  |  |  |  |  | 0.35 | 10.3 | 35.7 | 114 | 0.23 | 2.35
10 | Y[Aib]EGTFTSDYSI[Aib]LEKQAQ[Aib]AFVEWLIK([γGlu-γGlu-γGlu-γGlu-γGlu-γGlu-C20 diacid])GGPSEGASLRHYYNWLTRQRY-NH2 (also: TFA salt) [Compound 305] |  |  |  |  |  |  |  | 0.29 | 7.08 | 18.2 | 101 | 0.65 | 2.81
